# Source: US20190359662A1
# Legend:
# Test in all cases: cell-based or functional assay
# hNav1.1 (human) = hNav1.1 (human) (UniProt P35498)
# hNav1.2 (human) = hNav1.2 (human) (UniProt Q99250)
# hNav1.3 (human) = hNav1.3 (human) (UniProt Q9NY46)
# hNav1.4 (human) = hNav1.4 (human) (UniProt P35499)
# hNav1.5 (human) = hNav1.5 (human) (UniProt Q14524)
# hNav1.6 (human) = hNav1.6 (human) (UniProt Q9UQD0)
# hNav1.7 (human) = hNav1.7 (human) (UniProt Q15858)
# hNav1.8 (human) = hNav1.8 (human) (UniProt Q9Y5Y9)
# hNav1.9 (human) = hNav1.9 (human) (UniProt Q9UI33)
# hNav1.2 (human), sequence (Q99250 whole entry): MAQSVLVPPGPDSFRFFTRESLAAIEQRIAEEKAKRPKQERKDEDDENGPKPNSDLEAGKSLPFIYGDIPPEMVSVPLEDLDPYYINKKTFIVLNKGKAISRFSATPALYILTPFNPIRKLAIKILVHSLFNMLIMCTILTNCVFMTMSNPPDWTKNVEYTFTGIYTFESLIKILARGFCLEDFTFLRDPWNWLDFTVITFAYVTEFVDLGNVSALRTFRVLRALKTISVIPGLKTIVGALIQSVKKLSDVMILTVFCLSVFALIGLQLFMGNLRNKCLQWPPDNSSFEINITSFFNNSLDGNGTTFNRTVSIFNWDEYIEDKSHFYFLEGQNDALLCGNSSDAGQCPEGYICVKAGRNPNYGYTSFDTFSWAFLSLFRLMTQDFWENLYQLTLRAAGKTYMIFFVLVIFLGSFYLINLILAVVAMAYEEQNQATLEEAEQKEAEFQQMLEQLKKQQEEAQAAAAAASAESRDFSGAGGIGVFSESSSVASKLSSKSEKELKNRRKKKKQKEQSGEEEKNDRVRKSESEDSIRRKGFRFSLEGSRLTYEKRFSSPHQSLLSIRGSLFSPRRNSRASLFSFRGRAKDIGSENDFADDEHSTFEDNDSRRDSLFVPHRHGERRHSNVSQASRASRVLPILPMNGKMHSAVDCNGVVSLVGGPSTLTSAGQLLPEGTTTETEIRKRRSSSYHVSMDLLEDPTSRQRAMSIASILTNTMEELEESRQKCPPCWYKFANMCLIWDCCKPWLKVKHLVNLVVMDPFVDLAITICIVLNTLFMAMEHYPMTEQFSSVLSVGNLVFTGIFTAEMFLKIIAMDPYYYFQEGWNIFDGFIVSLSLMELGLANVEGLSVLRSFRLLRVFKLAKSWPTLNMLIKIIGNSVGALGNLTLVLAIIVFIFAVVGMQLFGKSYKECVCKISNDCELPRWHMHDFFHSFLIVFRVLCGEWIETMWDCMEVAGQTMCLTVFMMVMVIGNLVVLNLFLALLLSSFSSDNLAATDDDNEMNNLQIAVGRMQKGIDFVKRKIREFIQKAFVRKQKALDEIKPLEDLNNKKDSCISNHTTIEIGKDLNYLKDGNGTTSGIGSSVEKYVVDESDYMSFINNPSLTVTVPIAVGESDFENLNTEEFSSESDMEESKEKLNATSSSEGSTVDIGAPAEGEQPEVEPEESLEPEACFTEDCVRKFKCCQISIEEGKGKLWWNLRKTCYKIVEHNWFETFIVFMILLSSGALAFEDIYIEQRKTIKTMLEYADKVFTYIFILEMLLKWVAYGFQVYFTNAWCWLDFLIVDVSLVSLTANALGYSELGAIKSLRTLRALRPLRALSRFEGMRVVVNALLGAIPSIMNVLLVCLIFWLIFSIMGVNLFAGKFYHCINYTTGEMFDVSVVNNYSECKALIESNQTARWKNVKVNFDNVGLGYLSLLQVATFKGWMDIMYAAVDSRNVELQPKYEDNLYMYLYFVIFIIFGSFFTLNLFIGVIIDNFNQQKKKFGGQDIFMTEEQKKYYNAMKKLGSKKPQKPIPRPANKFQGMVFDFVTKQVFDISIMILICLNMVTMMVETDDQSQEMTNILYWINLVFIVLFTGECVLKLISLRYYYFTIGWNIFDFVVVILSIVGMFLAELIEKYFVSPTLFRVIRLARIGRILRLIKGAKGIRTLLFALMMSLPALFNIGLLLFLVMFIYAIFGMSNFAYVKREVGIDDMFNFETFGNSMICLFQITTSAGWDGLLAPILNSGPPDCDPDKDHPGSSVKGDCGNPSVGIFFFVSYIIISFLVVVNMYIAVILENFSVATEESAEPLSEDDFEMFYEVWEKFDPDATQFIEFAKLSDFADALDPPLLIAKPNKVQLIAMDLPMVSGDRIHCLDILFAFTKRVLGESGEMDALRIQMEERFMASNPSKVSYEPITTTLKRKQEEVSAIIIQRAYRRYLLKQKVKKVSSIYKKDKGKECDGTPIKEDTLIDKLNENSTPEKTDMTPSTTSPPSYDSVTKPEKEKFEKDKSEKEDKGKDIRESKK
# hNav1.5 (human), sequence (Q14524 whole entry): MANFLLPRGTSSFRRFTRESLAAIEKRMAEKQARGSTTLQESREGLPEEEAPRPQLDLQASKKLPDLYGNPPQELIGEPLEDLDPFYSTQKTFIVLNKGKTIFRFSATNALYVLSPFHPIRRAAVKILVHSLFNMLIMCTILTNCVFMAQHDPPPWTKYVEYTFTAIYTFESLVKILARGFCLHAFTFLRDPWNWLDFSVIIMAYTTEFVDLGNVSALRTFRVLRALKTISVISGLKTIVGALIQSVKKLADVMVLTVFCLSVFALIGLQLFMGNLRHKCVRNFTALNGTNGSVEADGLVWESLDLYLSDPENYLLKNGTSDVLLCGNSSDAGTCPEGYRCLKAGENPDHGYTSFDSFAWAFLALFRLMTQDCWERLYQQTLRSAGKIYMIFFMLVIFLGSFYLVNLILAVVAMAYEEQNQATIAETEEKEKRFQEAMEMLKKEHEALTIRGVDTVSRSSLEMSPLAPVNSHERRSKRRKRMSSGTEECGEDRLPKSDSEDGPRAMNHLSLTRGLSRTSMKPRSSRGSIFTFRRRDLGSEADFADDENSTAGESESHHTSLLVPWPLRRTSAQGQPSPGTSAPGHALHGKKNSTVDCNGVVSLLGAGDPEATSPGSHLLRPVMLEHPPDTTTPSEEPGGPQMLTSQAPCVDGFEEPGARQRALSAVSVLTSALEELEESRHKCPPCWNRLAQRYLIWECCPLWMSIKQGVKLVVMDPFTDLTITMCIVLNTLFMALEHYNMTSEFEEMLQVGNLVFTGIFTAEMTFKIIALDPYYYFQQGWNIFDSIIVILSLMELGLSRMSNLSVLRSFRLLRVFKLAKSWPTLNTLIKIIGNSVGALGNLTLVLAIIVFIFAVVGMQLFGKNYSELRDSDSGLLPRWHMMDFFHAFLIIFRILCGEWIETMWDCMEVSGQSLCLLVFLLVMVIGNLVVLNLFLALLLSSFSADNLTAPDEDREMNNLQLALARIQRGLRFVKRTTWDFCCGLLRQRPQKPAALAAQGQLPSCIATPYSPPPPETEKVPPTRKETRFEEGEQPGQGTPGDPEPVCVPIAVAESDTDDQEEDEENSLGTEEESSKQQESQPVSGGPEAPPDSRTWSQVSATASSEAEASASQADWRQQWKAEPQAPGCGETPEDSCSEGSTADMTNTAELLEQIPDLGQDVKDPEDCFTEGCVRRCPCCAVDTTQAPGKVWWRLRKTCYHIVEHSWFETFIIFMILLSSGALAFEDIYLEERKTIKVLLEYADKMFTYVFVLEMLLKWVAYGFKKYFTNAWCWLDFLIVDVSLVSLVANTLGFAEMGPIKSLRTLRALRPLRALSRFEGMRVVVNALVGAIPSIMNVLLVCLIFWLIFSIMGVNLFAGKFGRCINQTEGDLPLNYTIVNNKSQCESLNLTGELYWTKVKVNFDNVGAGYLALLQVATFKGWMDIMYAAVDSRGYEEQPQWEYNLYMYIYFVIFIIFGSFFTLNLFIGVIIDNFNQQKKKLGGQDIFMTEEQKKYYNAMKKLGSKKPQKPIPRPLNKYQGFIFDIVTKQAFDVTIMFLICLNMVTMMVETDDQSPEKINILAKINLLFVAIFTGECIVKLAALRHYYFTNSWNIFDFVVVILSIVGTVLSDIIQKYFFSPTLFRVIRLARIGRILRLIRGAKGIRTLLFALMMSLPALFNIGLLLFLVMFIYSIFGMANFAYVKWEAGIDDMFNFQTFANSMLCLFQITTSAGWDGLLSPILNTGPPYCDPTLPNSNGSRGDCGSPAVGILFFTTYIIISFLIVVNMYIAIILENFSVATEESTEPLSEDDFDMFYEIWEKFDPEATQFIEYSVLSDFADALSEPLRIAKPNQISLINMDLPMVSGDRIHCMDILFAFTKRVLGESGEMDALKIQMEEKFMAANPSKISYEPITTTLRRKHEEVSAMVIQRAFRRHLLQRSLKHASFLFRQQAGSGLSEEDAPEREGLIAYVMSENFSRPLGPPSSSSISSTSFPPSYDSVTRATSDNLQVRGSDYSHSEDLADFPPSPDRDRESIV
substance,measurement,setting,value
Pnc1a (peptide),"pIC50, automated patch clamp",hNav1.1 (human),7.43 M
same,"pIC50, membrane potential assay",hNav1.1 (human),4.88 M
same,"pIC50, automated patch clamp",hNav1.2 (human),6.9 M
same,"pIC50, membrane potential assay",hNav1.2 (human),5.53 M
same,"pIC50, automated patch clamp",hNav1.3 (human),6.68 M
same,"pIC50, membrane potential assay",hNav1.3 (human),5.09 M
same,"pIC50, automated patch clamp",hNav1.4 (human),6.8 M
same,"pIC50, membrane potential assay",hNav1.4 (human),4.95 M
same,"pIC50, automated patch clamp",hNav1.5 (human),6.01 M
same,"pIC50, membrane potential assay",hNav1.5 (human),4.07 M
same,"pIC50, automated patch clamp",hNav1.6 (human),6.89 M
same,"pIC50, membrane potential assay",hNav1.6 (human),4.73 M
same,"pIC50, automated patch clamp",hNav1.7 (human),> 9.04 M
same,"pIC50, automated patch clamp",hNav1.8 (human),4.32 M
same,"pIC50, membrane potential assay",hNav1.8 (human),4.58 M
same,"pIC50, automated patch clamp",hNav1.9 (human),5.63 M
